Test results taken from PMC11915744.
pKd: −log10 of the molar value.

Molecular target: NS1 used in the SPR assay (UniProt P03496)
Assay: SPR

Sequence of UniProt P03496 (P03496 whole entry): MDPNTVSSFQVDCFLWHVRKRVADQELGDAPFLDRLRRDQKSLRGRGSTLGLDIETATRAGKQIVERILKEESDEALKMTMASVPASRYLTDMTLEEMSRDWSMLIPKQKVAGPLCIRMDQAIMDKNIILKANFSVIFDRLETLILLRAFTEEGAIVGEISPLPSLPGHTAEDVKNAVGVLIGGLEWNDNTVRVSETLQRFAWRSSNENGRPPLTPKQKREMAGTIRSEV

With “hnRNPH1 used in the SPR assay (from UniProt P31943 1-449) (natural protein)” the pKd was 4.98.
